# The supplement of paper PMC9112550, “Optimization of the antimicrobial peptide Bac7 by deep mutational scanning” (BMC Biology, 2022)
# Tested on: Escherichia coli TOP10
# Assay: shrunken log2 fold change of peptide-encoding DNA abundance (4.5 h post-induction vs induction); higher = less antimicrobial activity (less host growth inhibition)
# Conditions: time post-induction: 4.5 h; library: site-saturation at positions 5, 18, 19, 20
# 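Note: peptides expressed intracellularly from a pBAD plasmid library in pooled LB shake-flask culture, induced with 0.3% L-arabinose, DNA abundance read by NGS, three biological replicates, DESeq2 with apeglm shrinkage.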
row,Sequence,shrunken log2 fold change
1,RRIRLRPPRLPRPRPRPRGAPRP,0.425
2,RRIRHRPPRLPRPRPRPDDNPRP,-0.0371
3,RRIRCRPPRLPRPRPRPKDFPRP,-0.0611
4,RRIRNRPPRLPRPRPRPAGAPRP,0.665
5,RRIRDRPPRLPRPRPRPKQRPRP,0.314
6,RRIRYRPPRLPRPRPRPRKAPRP,0.00796
7,RRIRRRPPRLPRPRPRPDIQPRP,0.0298
8,RRIRKRPPRLPRPRPRPTFRPRP,0.527
9,RRIRFRPPRLPRPRPRPIMAPRP,-0.0564
10,RRIRHRPPRLPRPRPRPNRHPRP,-0.281
11,RRIRNRPPRLPRPRPRPYLSPRP,-0.169
12,RRIRARPPRLPRPRPRPKSTPRP,0.28
13,RRIRWRPPRLPRPRPRPNARPRP,0.0903
14,RRIRKRPPRLPRPRPRPENAPRP,0.116
15,RRIRNRPPRLPRPRPRPTQYPRP,0.095
16,RRIRSRPPRLPRPRPRPIIGPRP,-0.276
17,RRIRKRPPRLPRPRPRPANKPRP,0.142
18,RRIRPRPPRLPRPRPRPENFPRP,0.0102
19,RRIRYRPPRLPRPRPRPIALPRP,-0.0389
20,RRIRSRPPRLPRPRPRPPHQPRP,0.27
21,RRIRYRPPRLPRPRPRPWWYPRP,-0.139
22,RRIRQRPPRLPRPRPRPFASPRP,-0.35
23,RRIRKRPPRLPRPRPRPMKQPRP,-0.108
24,RRIRIRPPRLPRPRPRPQNIPRP,-1.22
25,RRIRRRPPRLPRPRPRPMMWPRP,0.487

row,Sequence,shrunken log2 fold change
1,RRIRARPPRLPRPRPRPINNPRP,-0.441
2,RRIRTRPPRLPRPRPRPRWHPRP,0.133
3,RRIRGRPPRLPRPRPRPETVPRP,0.431
4,RRIRDRPPRLPRPRPRPNKWPRP,-0.0744
5,RRIRMRPPRLPRPRPRPGKFPRP,0.0419
6,RRIRERPPRLPRPRPRPYFNPRP,-0.583
7,RRIRCRPPRLPRPRPRPGTTPRP,0.844
8,RRIRIRPPRLPRPRPRPSNRPRP,-0.139
9,RRIRTRPPRLPRPRPRPRMQPRP,0.0874
10,RRIRMRPPRLPRPRPRPAHSPRP,0.111
11,RRIRYRPPRLPRPRPRPTHMPRP,-0.429
12,RRIRFRPPRLPRPRPRPIDLPRP,-0.164
13,RRIRNRPPRLPRPRPRPWHGPRP,-0.153
14,RRIRTRPPRLPRPRPRPDRQPRP,-0.0344
15,RRIRERPPRLPRPRPRPLPEPRP,0.0716
16,RRIRWRPPRLPRPRPRPNITPRP,-0.161
17,RRIRDRPPRLPRPRPRPCIMPRP,0.0282
18,RRIRWRPPRLPRPRPRPNVRPRP,0.057
19,RRIRVRPPRLPRPRPRPRCKPRP,0.039
20,RRIRARPPRLPRPRPRPSEEPRP,0.452
21,RRIRFRPPRLPRPRPRPDWWPRP,-0.0896
22,RRIRMRPPRLPRPRPRPLYQPRP,-0.38
23,RRIRLRPPRLPRPRPRPLCMPRP,-0.467
24,RRIRIRPPRLPRPRPRPIINPRP,-1.15
25,RRIRHRPPRLPRPRPRPRDRPRP,0.0898

row,Sequence,shrunken log2 fold change
1,RRIRGRPPRLPRPRPRPNRHPRP,0.231
2,RRIRSRPPRLPRPRPRPSTMPRP,-0.455
3,RRIRMRPPRLPRPRPRPVWQPRP,0.752
4,RRIRYRPPRLPRPRPRPYEAPRP,-0.336
5,RRIRERPPRLPRPRPRPMSFPRP,-0.314
6,RRIRTRPPRLPRPRPRPLQKPRP,-0.134
7,RRIRFRPPRLPRPRPRPMVMPRP,-0.696
8,RRIRRRPPRLPRPRPRPEYLPRP,-0.0446
9,RRIRIRPPRLPRPRPRPWTDPRP,-0.111
10,RRIRMRPPRLPRPRPRPNLMPRP,-0.126
11,RRIRVRPPRLPRPRPRPDIWPRP,0.0543
12,RRIRWRPPRLPRPRPRPVSRPRP,0.616
13,RRIRNRPPRLPRPRPRPVKCPRP,0.0182
14,RRIRARPPRLPRPRPRPACIPRP,0.171
15,RRIRARPPRLPRPRPRPAQGPRP,0.373
16,RRIRVRPPRLPRPRPRPAANPRP,-0.00167
17,RRIRTRPPRLPRPRPRPTIQPRP,-0.0327
18,RRIRARPPRLPRPRPRPRFTPRP,0.267
19,RRIRHRPPRLPRPRPRPQKRPRP,-0.225
20,RRIRGRPPRLPRPRPRPHYDPRP,-0.0292
21,RRIRSRPPRLPRPRPRPLYGPRP,-0.565
22,RRIRSRPPRLPRPRPRPVWNPRP,-0.372
23,RRIRQRPPRLPRPRPRPFCYPRP,-0.264
24,RRIRQRPPRLPRPRPRPMLNPRP,0.014
25,RRIRRRPPRLPRPRPRPAQAPRP,0.233
